{"source": "patent US20220380776A1", "biological_target": "CD46 (UniProt P15529)", "sequence (P15529 35-343 limits assumed)": "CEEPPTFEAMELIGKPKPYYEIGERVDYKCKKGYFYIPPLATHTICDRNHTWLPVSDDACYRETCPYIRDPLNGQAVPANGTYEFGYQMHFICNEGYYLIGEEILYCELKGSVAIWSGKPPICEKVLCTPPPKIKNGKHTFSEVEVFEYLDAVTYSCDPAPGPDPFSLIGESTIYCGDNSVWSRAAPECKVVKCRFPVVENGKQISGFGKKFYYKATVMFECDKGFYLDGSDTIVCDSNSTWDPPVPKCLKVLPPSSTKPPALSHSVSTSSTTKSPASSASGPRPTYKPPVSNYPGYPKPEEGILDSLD", "assay": "Kd, method not stated (column head 'Kd (Oleks)')", "data": [{"substance": "Ad35 knob A8: Ile192Val Ile256Val", "values": [{"measurement": "Kd", "value": 13.7, "unit": "nM"}]}]}
